In patent publication US20220112273A1 (University of Pennsylvania, published 2022):

B1: CHIKV-Env-Fab (Fab, V domains shown)
VH: QVQLVQSGSELKKPGASVKVSCKASGYTLTRYAMTWVRQAPGQGLEWMGWINTYTGNPTYVQGFTGRFVFSLDTSVSTAFLHITSLKAEDTAVYFCAREGGARGFDYWGQGTLVTVSS
VL: QSVLTQPPSVSGAPGQRVTISCTGSSSNIGASHDVHWYQQLPGTAPTLLIYVNSNRPSGVPDRFSGSKSGTSASLAITGLQAEDEADYYCQSYDSNLSGSAVFGGGTKLTVLG
B2: HIV-1 Env-Fab (Fab generated from the VRC01 antibody, expressed from pHIV-1Env-Fab) (Fab, V domains shown)
VH: QVQLVQSGGQMKKPGESMRISCRASGYEFIDCTLNWIRLAPGKRPEWMGWLKPRGGAVNYARPLQGRVTMTRDVYSDTAFLELRSLTVDDTAVYFCTRGKNCDYNWDFEHWGRGTPVIVSS
VL: QIVLTQSPGTLSLSPGETAIISCRTSQYGSLAWYQQRPGQAPRLVIYSGSTRAAGIPDRFSGSRWGPDYNLTISNLESGDFGVYYCQQYEFFGQGTKVQVDI
B3: CHIKV-IgG (full-length anti-CHIKV Env human IgG from a single plasmid) (antibody, V domains shown)
VH: QVQLQQPGAALVKPGASAMMSCKASGYTFTSYWITWVKQRPGQGLEWIGDIYPGTGRTIYKEKFKTKATLTVDTSSSTAFMQLNSLTSEDSAVYYCARGYGSPYYALDYWGQGTSVTVSS
VL: DIVLTQSPASLAVSQGQRATISCKASQSVDYDGDSYVNWYQQKPGQSPKLLIYDASNLESGIPARFSGSGSGTDFTLNIHPVEEEDVATYYCQESNEDPRTFGGGTKLEIKR

Key:
[1] = target: recombinant HIV-1 Env (subtype B; MN) protein (HIV-1 (subtype B, MN), UniProt P05877 32-513); experiment: binding ELISA, serial dilutions of day 14 mouse sera (FIG. 64A)
[2] = target: Env of pseudotyped HIV-1 SF162S virus (clade B, tier 1) (HIV-1 (clade B, SF162S)); experiment: cell-based or functional assay
[3] = target: Env of pseudotyped HIV-1 Q23Env17 virus (clade A, tier 1) (HIV-1 (clade A, Q23Env17)); experiment: cell-based or functional assay
[4] = target: Env of pseudotyped HIV-1 Bal26 virus (clade B, tier 1) (HIV-1 (clade B, Bal26)); experiment: cell-based or functional assay

Binder	binding result [1]	plateau percent neutralization (TZM-Bl luciferase assay, sera at 1:50) [2] [%]	plateau percent neutralization (TZM-Bl luciferase assay, sera at 1:50) [3] [%]	plateau percent neutralization (TZM-Bl luciferase assay, sera at 1:50) [4] [%]
B1	no binding	–	–	–
B2	–	~70	~60	~62
B3	no binding	–	–	–
